From US20170349667A1 (ARGEN X B V, published 2017) come the findings set out here.

Positions count from the first letter of the chain named. Where only a bound is given, the exact number is not on record here.

Assay [1] concerns the target human c-Met on cells (MKN-45, A549, HPAF, BxPC3) (human, UniProt P08581 25-1390). The assay can be described thus: cell-based or functional assay.
Assay [2] has as its target T1, HMet (human c-Met, control of Table 18) (human).
T1 chain: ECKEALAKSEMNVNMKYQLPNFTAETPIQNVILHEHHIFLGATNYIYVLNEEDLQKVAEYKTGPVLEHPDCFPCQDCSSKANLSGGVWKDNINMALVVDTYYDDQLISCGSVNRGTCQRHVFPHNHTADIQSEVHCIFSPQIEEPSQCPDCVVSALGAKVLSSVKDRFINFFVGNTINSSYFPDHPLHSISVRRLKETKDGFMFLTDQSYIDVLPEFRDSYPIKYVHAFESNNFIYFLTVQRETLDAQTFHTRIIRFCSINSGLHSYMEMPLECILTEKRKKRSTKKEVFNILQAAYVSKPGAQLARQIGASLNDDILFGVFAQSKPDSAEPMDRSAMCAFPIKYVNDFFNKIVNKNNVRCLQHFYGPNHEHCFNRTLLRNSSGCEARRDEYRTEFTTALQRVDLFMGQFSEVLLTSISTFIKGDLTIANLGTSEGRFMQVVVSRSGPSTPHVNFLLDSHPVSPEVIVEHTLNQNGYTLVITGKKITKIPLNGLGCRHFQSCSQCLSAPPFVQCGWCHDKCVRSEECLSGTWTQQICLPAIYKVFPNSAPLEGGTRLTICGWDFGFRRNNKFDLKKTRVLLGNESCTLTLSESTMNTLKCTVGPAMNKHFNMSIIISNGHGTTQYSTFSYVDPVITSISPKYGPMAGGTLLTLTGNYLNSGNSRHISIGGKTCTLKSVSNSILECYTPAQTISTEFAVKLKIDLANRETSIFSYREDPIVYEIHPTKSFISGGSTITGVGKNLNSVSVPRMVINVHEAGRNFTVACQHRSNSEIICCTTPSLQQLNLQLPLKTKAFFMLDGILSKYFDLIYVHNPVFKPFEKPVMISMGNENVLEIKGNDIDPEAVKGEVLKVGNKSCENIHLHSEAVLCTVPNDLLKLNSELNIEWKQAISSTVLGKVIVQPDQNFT
The assay can be described thus: ELISA, mAb coated at 2 µg/ml, c-Met added, streptavidin-HRP. An excerpt: (§1) An ELISA was run to investigate the binding of the mAbs to the different chimeras.

The target of assay [3] is T2, human c-Met ECD (aa 25-932) with His tag (human, Glycoprotein. Furin cleavage after residue 307 gives disulfide-linked alpha and beta parts; written here as one chain.).
T2 construct: also called human c-Met (WT)
T2 chain: T1 chain
Put plainly: ELISA: 200 ng of recombinant c-Met ECD protein coated, mAb 1 h, HRP goat anti-human antibody, TMB, OD 620 nm. The procedure: 200 ng of the different chimeric recombinant cMet proteins were immobilized on maxisorb plates overnight at 4° C. After washing with PBS, the plates were blocked with 0.1% casein for 2 h at RT, before the mAbs were added and allowed to bind to the c-Met for 1 h at RT. After washing, HRP-conjugated goat anti-human antibody (diluted 1/5000, Jackson Labs) was added and incubated for 1 h at RT before additional washing and addition of TMB. The optical density at 620 nm was read and the values were represented in a graph against the concentration of mAbs.
For orientation: ELISA stands for enzyme-linked immunosorbent assay.

In assay [4] the target is llama-human c-Met chimera LS1 (aa1-98) (Llama glama; human). The assay can be described thus: ELISA, mAb coated at 2 µg/ml, chimera added, streptavidin-HRP.
Excerpt: as §1

In assay [5] the target is T3, llama-human c-Met chimera L18 (aa540-909) (human; Llama glama).
T3 construct: label probably LI8
Described as above.
Excerpt: as §1

Assay [6] concerns the target llama-human c-Met chimera LP7*(aa523-909), T737I (human; Llama glama). The description is as above.
Excerpt: as §1

Assay [7] has as its target T4, llama-human c-Met chimera L111 (aa634-909) (human; Llama glama).
T4 construct: label probably LI11
The description is as above.
Excerpt: as §1

Assay [8] concerns the target llama-human c-Met chimera LP6 (aa497-909) (human; Llama glama). The assay is described as above.
Excerpt: as §1

The target of assay [9] is T5, llama-human c-Met chimera L19 (aa572-909) (human; Llama glama).
T5 construct: label probably LI9
The assay is described as above.
Excerpt: as §1

For assay [10], the target named is T6, llama-human c-Met chimera L110 (aa608-909) (human; Llama glama).
T6 construct: label probably LI10
Described as above.
Excerpt: as §1

Assay [11] concerns the target T7, Decoy c-Met (extracellular domain of human c-Met) (human, Glycoprotein. In cells it is cleaved by furin after residue 307 into disulfide-linked alpha and beta parts; written here as one chain.).
T7 construct: construct after Basilico et al. 2008; also called Decoy Met; monomeric Decoy Met
T7 chain: T1 chain
Put plainly: binding ELISA, human c-Met (Decoy).

Assay [12] deals with T8, recombinant dimeric c-Met (R&D systems, 358-MT/CF) (human, UniProt P08581 25-932).
T8 construct: bought protein; also called recombinant c-Met; Fc-Met; not shown: C-terminal Fc portion (captured with anti-human Fc) and a His tag (captured with anti-His)
Put plainly: competition ELISA: recombinant dimeric c-Met captured on the plate, mAb dilutions, then 25 ng/ml N-terminally biotinylated HGF as competitor, strep-HRP, 620 nm; % competition against the controls. How it is done:
Competition with N-terminally biotinylated HGF for binding to immobilized c-Met was performed using an ELISA-based competition assay. Five μg/ml mouse anti-His antibodies (Serotech) was immobilized on a maxisorb plate and, after blocking with 1% casein in PBS for 2 h, 100 ng/ml recombinant dimeric c-Met was added and incubated for 1 h at room temperature. After washing, dilutions of the antibodies were added and allowed to bind to the captured c-Met for 30 minutes, before 25 ng/ml N-terminally biotinylated HGF (R&D systems, 294-HGN/CF) was added. Biotinylated HGF was incubated at room temperature for 1 h before washing. Horseradish-conjugated streptavidin (strep-HRP) was added and incubated for an additional hour. TMB was added and the plate read at 620 nm. An isotype control (hIgG1λ) was included as a control as well as murine 5D5 antibody. Competition was expressed as percentage competition as compared to the controls (strep-HRP only or hIgG1λ) and plotted against the concentration of antibodies. An IC₅₀ was calculated using GraphPad Prism (Table 10). Antibodies 13E6 and 20A11 only displaced HGF partially (about 50%), which may be related to the epitope these two mAbs recognize on the c-Met.

Assay [13] has as its target T9, llama-human c-Met chimera LS4 (aa1-348) (Llama glama; human).
T9 construct: as LS1
Put plainly: ELISA, mAb coated at 2 µg/ml, chimera added, streptavidin-HRP.
Excerpt: as §1

Assay [14] addresses T10, llama-human c-Met chimera LS2 (aa1-199) (Llama glama; human).
T10 construct: as LS1
Described as above.
Excerpt: as §1

In assay [15] the target is T11, llama-human c-Met chimera LS3 (aa1-287) (Llama glama; human).
T11 construct: as LS1
The description is as above.
Excerpt: as §1

Assay [16] has as its target T12, llama-human c-Met chimera LS5 (aa1-448) (Llama glama; human).
T12 construct: as LS1
The description is as above.
Excerpt: as §1

B1: 36C4 mAb (antibody, human IgG1, V domains shown)
VH: QVQLVESGPGLVKPSQTLSLTCAVSGGSITTNYYYWSWIRQSPGKGLEWMGVIAYDGSTDYSPSLKSRTSISRDTSKNQFSLQLSSVTPEDTAVYYCARDVRVIATGWATANALDAWGQGTLVTVSS
VL: QSVLTQPPSVSGSPGKTVTISCAGTSSDVGYGNYVSWYQQLPGTAPKLLIFAVSYRASGIPDRFSGSKSGNTAFLTISGLQSEDEADYYCASYRSSNNAAVFGGGTHLTVL
notes: human IgG1 constant domains and human C lambda
For the molecule B1, in [1], the “antibody-induced proliferation of BxPC3 cells (agonism)” value (“antibody-induced proliferation” below) was < 20 % of the proliferation obtained with 75 ng/ml HGF. Besides, the EC50 in [2] stood at 0.06 µg/mL; in assay [4], 0.068 µg/mL; in assay [5], 0.047 µg/mL; in [6], 0.055 µg/mL; in assay [7], 0.045 µg/mL; in [8], 0.05 µg/mL. Moreover, the figures for the 50% effective concentration (EC50) in assay [9], in [10] and in assay [11] were 0.047 µg/mL, 0.047 µg/mL and 0.13 nM, respectively. The “EC50 (read off the curve)” value in assay [3] was roughly 0.6 nM.

B2: 13E6 mAb (antibody, human IgG1, V domains shown)
VH: QVQLQESGGDLVQPGGSLRLSCAASGFTFDDYVMNWVRQAPGKGLEWISAINWNGGSTYYAESMKGRFTISRDNAKNTLYLQMYSLQSDDTAVYYCVKDTVVSGNGYWGQGTQVTVSS
VL: QSVLTQPPSVSGTLGKTVTISCAGTSSDIGDYNYVSWYQQLPGTAPKLLIYDVNKRASGIPDRFSGSKSGNTASLSISGLQSEDEADYYCASYRSRNDYAFGGGTKLTVL
notes: as for B1
For B2, in assay [3], the “EC50 (read off the curve)” value was roughly 1 nM. In assay [11], this molecule registered an EC50 of 0.19 nM.

B3: 12G4 mAb (antibody, human IgG1, V domains shown)
VH: QLQLVESGGGMAQPGGSLKLSCAASGFTFDDYAMTWVRQAPGKGLEWLSTISWNDINTYYAESMKDRFTISRDNAKNTLYLQMNSLESEDTAVYYCAKRRDNYYGTSGEYDYWGQGTQVTVSS
VL: B2 VL with V3A, D31N, D52E, A57P, R96S, D98N, Y99V, A100V
notes: llama VH/V lambda fused to human IgG1 constant domains and human C lambda
In turn, B3 displayed an EC50 in [11] of 0.42 nM.

B4: murine 5D5 antibody (antibody, V domains shown)
VH: QVQLQQSGPELVRPGASVKMSCRASGYTFTSYWLHWVKQRPGQGLEWIGMIDPSNSDTRFNPNFKDKATLNVDRSSNTAYMLLSSLTSADSAVYYCATYGSYVSPLDYWGQGTSVTVSS
VL: DIMMSQSPSSLTVSVGEKVTVSCKSSQSLLYTSSQKNYLAWYQQKPGQSPKLLIYWASTRESGVPDRFTGSGSGTDFTLTITSVKADDLAVYYCQQYYAYPWTFGGGTKLEIK
As for B4, in assay [12], the “IC50 (read off the curve)” value was roughly 0.7 nM.

B5: 40B8 mAb (antibody, human IgG1, V domains shown)
VH: EVQLVQPGAELRNPGASVKVSCKASGYTFTNYVIDWVRQAPGQGLEWMGRIDPENGGTRYAQKFQGRVTFTADTSTSTAYVELSNLRSEDTAVYYCARLEDYELAYDYWGQGTQVTVSS
VL: DIVMTQTPSSVTASAGEKVTINCKSSQSVLLSSNQKNYLAWYQQRLGQSPRLLIYWASTRESGVPDRFSGSGSTTDFTLTISSFQPEDAAVYYCQQGVSFPLTFGQGTKVELK
notes: human IgG1 constant domains and human C kappa
Take B5: in assay [1], the “antibody-induced proliferation” value was < 20 % of the proliferation obtained with 75 ng/ml HGF. In addition, in [12], the “IC50 (read off the curve)” value was roughly 0.07 nM. In addition, in [11], the EC50 turned out to be 0.14 nM.

B6: 38H10 mAb (antibody, human IgG1, V domains shown)
VH: EVQLVQPGVELRNPGASVKVSCKASGYIFTMNSIDWVRQAPGQGLEWMGRIDPEDGGTKYAQKFQGRVTFTADTSTSTAYVELNSLRSEDTAVYYCARVDDYYLGYDYWGQGTQVTVSS
VL: EIVMTQSPSSVTASAGEKVTINCKSSQSVLWRSNQKNYLAWYQQRLGQSPRLLISWASIRESGVPDRFSGSGSTTDFTLTISSFQPEDAAVYYCQQGYSFPYTFGSGTRLEIK
notes: as for B5
Consider B6, for which the “antibody-induced proliferation” value in assay [1] was < 20 % of the proliferation obtained with 75 ng/ml HGF. The EC50 in [11] was 0.19 nM.

B7: 48A2 mAb (antibody, human IgG1, V domains shown)
VH: B6 VH
VL: DIVMTQTPTSVTASAGDKVTINCKSSQSVLFSSNQKNYLAWYQQRLGQSPRLLIYWASIRESGVPDRFSGSGSATDFTLTISNFQPEDAAVYYCQQGYSFPYSFGSGTRLEIR
notes: VL-shuffled variant of 38H10; human IgG1 and C kappa
Take B7: the EC50 in assay [4] is 0.031 µg/mL; in [5], greater than 0.04 µg/mL; in assay [13], 0.07 µg/mL; in assay [14], 0.034 µg/mL; in assay [7] it was 0.042 µg/mL; in assay [15], 0.05 µg/mL. Also, the EC50 in assay [9] was greater than 0.04 µg/mL; in assay [16] it was 0.05 µg/mL; in [10] it was greater than 0.04 µg/mL.

B8: 20A11 mAb (antibody, human IgG1, V domains shown)
VH: QVQLVESGGGLVQPGGSLRLSCAASGFTFDDYAMSWVRQAPGKGLEWVSAISWNGSSTYYAESMKGRFTISRDNAKNTLYLQMNSLKSEDTAVYYCAKDLIGSHDYWGQGTQVTVSS
VL: QAVLTQPPSVSGTLGKTLTISCAGTSSDVGYGNYVSWYQQLPGTAPKLLIYAVSTRASGIPDRFSGSKSGNTASLTISGLQSEDEADYYCASYRSSNNYAFGAGTKLTVL
notes: as for B1
In assay [11], B8 showed an EC50 of 4.3 nM.

As usually defined, the EC50 is the concentration at which the effect is half-maximal. The EC50 (read off the curve) is the concentration at which the effect is half-maximal.
